The assay can be described thus: NADH-coupled ATPase assay of ZRANB3 proteins. To be noted: 150 nM ZRANB3, 5 mM ATP, 0.5 μM flap DNA, 24 °C, average rates; for ATP hydrolysis rate: A340 nm. Format: biochemical. As for the experimental part:
The NADH-coupled ATPase assay is based on a reaction in which the regeneration of hydrolysed ATP is coupled to the oxidation of NADH[59]. It was used as described, with minor modifications. ZRANB3 (150 nM) was added to a 150 μl reaction containing 25 mM Tris-Cl pH 7.5, 13 mM MgCl2, 1.8 mM DTT, 100 μg ml^−1 BSA, 3 mM phosphoenolpyruvate, 36 U ml^−1 pyruvate kinase, 20 U ml^−1 lactate dehydrogenase, 0.5 μM flap DNA, and 5 mM ATP, with 750 μM NADH added immediately before ZRANB3. Reactions were mixed for 1 min on a shaker at 23 °C and analysed by measuring A340 nm at 20 s intervals during 60 min, on a Spectramax 250 microplate spectrophotometer at 24 °C. Linear titration of freshly prepared NADH was performed to obtain a standard curve for units of absorbance mM^−1 NADH. ATPase rates were calculated from data collected between time points where product formation was linear with respect to time.

B1: K984A: ZRANB3 basic residues HNH mutant (protein, UniProt Q5FWF4 1-1079, looked up, variant K984A)
DNA annealing helicase and …: MPRVHNIKKSLTPHISCVTNESDNLLDFLPDRLRAKLLPFQKDGIIFALKRNGRCMVADEMGLGKTIQAIGITYFYKEEWPLLIVVPSSLRYPWTEEIEKWIPELSPEEINVIQNKTDVRRMSTSKVTVLGYGLLTADAKTLIDALNNQNFKVVIVDESHYMKSRNATRSRILLPIVQKARRAILLTGTPALGRPEELFMQIEALFPQKFGRWTDYAKRYCNAHIRYFGKRPQWDCRGASNLNELHQLLSDIMIRRLKTEVLTQLPPKVRQRIPFDLPSAAAKELNTSFEEWEKIMRTPNSGAMETVMGLITRMFKQTAIAKAGAVKDYIKMMLQNDSLKFLVFAHHLSMLQACTEAVIENKTRYIRIDGSVSSSERIHLVNQFQKDPDTRVAILSIQAAGQGLTFTAASHVVFAELYWDPGHIKQAEDRAHRIGQCSSVNIHYLIANGTLDTLMWGMLNRKAQVTGSTLNGRKEKIQAEEGDKEKWDFLQFAEAWTPNDSSEELRKEALFTHFEKEKQHDIRSFFVPQPKKRQLMTSCDESKRFREENTVVSSDPTKTAARDIIDYESDVEPETKRLKLAASEDHCSPSEETPSQSKQIRTPLVESVQEAKAQLTTPAFPVEGWQCSLCTYINNSELPYCEMCETPQGSAVMQIDSLNHIQDKNEKDDSQKDTSKKVQTISDCEKQALAQSEPGQLADSKEETPKIEKEDGLTSQPGNEQWKSSDTLPVYDTLMFCASRNTDRIHIYTKDGKQMSCNFIPLDIKLDLWEDLPASFQLKQYRSLILRFVREWSSLTAMKQRIIRKSGQLFCSPILALEEITKQQTKQNCTKRYITKEDVAVASMDKVKNVGGHVRLITKESRPRDPFTKKLLEDGACVPFLNPYTVQADLTVKPSTSKGYLQAVDNEGNPLCLRCQQPTCQTKQACKANSWDSRFCSLKCQEEFWIRSNNSYLRAKVFETEHGVCQLCNVNAQELFLRLRDAPASQRKNLLYATWTSKLPLEQLNEMIRNPGEGHFWQVDHIKPVYGGGGQCSLDNLQTLCTVCHKERTARQAKERSQVRRQSLASKHGSDITRFLVKK
In turn, B1 returned an ATP hydrolysis rate of 20.93 ± 2.01 µmol/L/min and a k of 139.56 ± 13.45 min⁻¹.

B2: R1009A: ZRANB3 basic residues HNH mutant (protein, UniProt Q5FWF4 1-1079, looked up, variant R1009A)
DNA annealing helicase and …: MPRVHNIKKSLTPHISCVTNESDNLLDFLPDRLRAKLLPFQKDGIIFALKRNGRCMVADEMGLGKTIQAIGITYFYKEEWPLLIVVPSSLRYPWTEEIEKWIPELSPEEINVIQNKTDVRRMSTSKVTVLGYGLLTADAKTLIDALNNQNFKVVIVDESHYMKSRNATRSRILLPIVQKARRAILLTGTPALGRPEELFMQIEALFPQKFGRWTDYAKRYCNAHIRYFGKRPQWDCRGASNLNELHQLLSDIMIRRLKTEVLTQLPPKVRQRIPFDLPSAAAKELNTSFEEWEKIMRTPNSGAMETVMGLITRMFKQTAIAKAGAVKDYIKMMLQNDSLKFLVFAHHLSMLQACTEAVIENKTRYIRIDGSVSSSERIHLVNQFQKDPDTRVAILSIQAAGQGLTFTAASHVVFAELYWDPGHIKQAEDRAHRIGQCSSVNIHYLIANGTLDTLMWGMLNRKAQVTGSTLNGRKEKIQAEEGDKEKWDFLQFAEAWTPNDSSEELRKEALFTHFEKEKQHDIRSFFVPQPKKRQLMTSCDESKRFREENTVVSSDPTKTAARDIIDYESDVEPETKRLKLAASEDHCSPSEETPSQSKQIRTPLVESVQEAKAQLTTPAFPVEGWQCSLCTYINNSELPYCEMCETPQGSAVMQIDSLNHIQDKNEKDDSQKDTSKKVQTISDCEKQALAQSEPGQLADSKEETPKIEKEDGLTSQPGNEQWKSSDTLPVYDTLMFCASRNTDRIHIYTKDGKQMSCNFIPLDIKLDLWEDLPASFQLKQYRSLILRFVREWSSLTAMKQRIIRKSGQLFCSPILALEEITKQQTKQNCTKRYITKEDVAVASMDKVKNVGGHVRLITKESRPRDPFTKKLLEDGACVPFLNPYTVQADLTVKPSTSKGYLQAVDNEGNPLCLRCQQPTCQTKQACKANSWDSRFCSLKCQEEFWIRSNNSYLRAKVFETEHGVCQLCNVNAQELFLRLRDAPKSQRKNLLYATWTSKLPLEQLNEMIANPGEGHFWQVDHIKPVYGGGGQCSLDNLQTLCTVCHKERTARQAKERSQVRRQSLASKHGSDITRFLVKK
As to B2, the ATP hydrolysis rate is 7.49 ± 2.57 µmol/L/min and the k was 49.94 ± 17.14 min⁻¹.

B3: R987A: ZRANB3 basic residues HNH mutant (protein, UniProt Q5FWF4 1-1079, looked up, variant R987A)
DNA annealing helicase and …: MPRVHNIKKSLTPHISCVTNESDNLLDFLPDRLRAKLLPFQKDGIIFALKRNGRCMVADEMGLGKTIQAIGITYFYKEEWPLLIVVPSSLRYPWTEEIEKWIPELSPEEINVIQNKTDVRRMSTSKVTVLGYGLLTADAKTLIDALNNQNFKVVIVDESHYMKSRNATRSRILLPIVQKARRAILLTGTPALGRPEELFMQIEALFPQKFGRWTDYAKRYCNAHIRYFGKRPQWDCRGASNLNELHQLLSDIMIRRLKTEVLTQLPPKVRQRIPFDLPSAAAKELNTSFEEWEKIMRTPNSGAMETVMGLITRMFKQTAIAKAGAVKDYIKMMLQNDSLKFLVFAHHLSMLQACTEAVIENKTRYIRIDGSVSSSERIHLVNQFQKDPDTRVAILSIQAAGQGLTFTAASHVVFAELYWDPGHIKQAEDRAHRIGQCSSVNIHYLIANGTLDTLMWGMLNRKAQVTGSTLNGRKEKIQAEEGDKEKWDFLQFAEAWTPNDSSEELRKEALFTHFEKEKQHDIRSFFVPQPKKRQLMTSCDESKRFREENTVVSSDPTKTAARDIIDYESDVEPETKRLKLAASEDHCSPSEETPSQSKQIRTPLVESVQEAKAQLTTPAFPVEGWQCSLCTYINNSELPYCEMCETPQGSAVMQIDSLNHIQDKNEKDDSQKDTSKKVQTISDCEKQALAQSEPGQLADSKEETPKIEKEDGLTSQPGNEQWKSSDTLPVYDTLMFCASRNTDRIHIYTKDGKQMSCNFIPLDIKLDLWEDLPASFQLKQYRSLILRFVREWSSLTAMKQRIIRKSGQLFCSPILALEEITKQQTKQNCTKRYITKEDVAVASMDKVKNVGGHVRLITKESRPRDPFTKKLLEDGACVPFLNPYTVQADLTVKPSTSKGYLQAVDNEGNPLCLRCQQPTCQTKQACKANSWDSRFCSLKCQEEFWIRSNNSYLRAKVFETEHGVCQLCNVNAQELFLRLRDAPKSQAKNLLYATWTSKLPLEQLNEMIRNPGEGHFWQVDHIKPVYGGGGQCSLDNLQTLCTVCHKERTARQAKERSQVRRQSLASKHGSDITRFLVKK
Regarding B3, the ATP hydrolysis rate came out at 6.34 ± 0.40 µmol/L/min and the k came out at 42.31 ± 2.70 min⁻¹.

B4: K988A: ZRANB3 basic residues HNH mutant (protein, UniProt Q5FWF4 1-1079, looked up, variant K988A)
DNA annealing helicase and …: MPRVHNIKKSLTPHISCVTNESDNLLDFLPDRLRAKLLPFQKDGIIFALKRNGRCMVADEMGLGKTIQAIGITYFYKEEWPLLIVVPSSLRYPWTEEIEKWIPELSPEEINVIQNKTDVRRMSTSKVTVLGYGLLTADAKTLIDALNNQNFKVVIVDESHYMKSRNATRSRILLPIVQKARRAILLTGTPALGRPEELFMQIEALFPQKFGRWTDYAKRYCNAHIRYFGKRPQWDCRGASNLNELHQLLSDIMIRRLKTEVLTQLPPKVRQRIPFDLPSAAAKELNTSFEEWEKIMRTPNSGAMETVMGLITRMFKQTAIAKAGAVKDYIKMMLQNDSLKFLVFAHHLSMLQACTEAVIENKTRYIRIDGSVSSSERIHLVNQFQKDPDTRVAILSIQAAGQGLTFTAASHVVFAELYWDPGHIKQAEDRAHRIGQCSSVNIHYLIANGTLDTLMWGMLNRKAQVTGSTLNGRKEKIQAEEGDKEKWDFLQFAEAWTPNDSSEELRKEALFTHFEKEKQHDIRSFFVPQPKKRQLMTSCDESKRFREENTVVSSDPTKTAARDIIDYESDVEPETKRLKLAASEDHCSPSEETPSQSKQIRTPLVESVQEAKAQLTTPAFPVEGWQCSLCTYINNSELPYCEMCETPQGSAVMQIDSLNHIQDKNEKDDSQKDTSKKVQTISDCEKQALAQSEPGQLADSKEETPKIEKEDGLTSQPGNEQWKSSDTLPVYDTLMFCASRNTDRIHIYTKDGKQMSCNFIPLDIKLDLWEDLPASFQLKQYRSLILRFVREWSSLTAMKQRIIRKSGQLFCSPILALEEITKQQTKQNCTKRYITKEDVAVASMDKVKNVGGHVRLITKESRPRDPFTKKLLEDGACVPFLNPYTVQADLTVKPSTSKGYLQAVDNEGNPLCLRCQQPTCQTKQACKANSWDSRFCSLKCQEEFWIRSNNSYLRAKVFETEHGVCQLCNVNAQELFLRLRDAPKSQRANLLYATWTSKLPLEQLNEMIRNPGEGHFWQVDHIKPVYGGGGQCSLDNLQTLCTVCHKERTARQAKERSQVRRQSLASKHGSDITRFLVKK
Molecule B4 showed an ATP hydrolysis rate of 18.83 ± 1.94 µmol/L/min and a k of 125.55 ± 12.95 min⁻¹.

B5: K998A: ZRANB3 basic residues HNH mutant (protein, UniProt Q5FWF4 1-1079, looked up, variant K998A)
DNA annealing helicase and …: MPRVHNIKKSLTPHISCVTNESDNLLDFLPDRLRAKLLPFQKDGIIFALKRNGRCMVADEMGLGKTIQAIGITYFYKEEWPLLIVVPSSLRYPWTEEIEKWIPELSPEEINVIQNKTDVRRMSTSKVTVLGYGLLTADAKTLIDALNNQNFKVVIVDESHYMKSRNATRSRILLPIVQKARRAILLTGTPALGRPEELFMQIEALFPQKFGRWTDYAKRYCNAHIRYFGKRPQWDCRGASNLNELHQLLSDIMIRRLKTEVLTQLPPKVRQRIPFDLPSAAAKELNTSFEEWEKIMRTPNSGAMETVMGLITRMFKQTAIAKAGAVKDYIKMMLQNDSLKFLVFAHHLSMLQACTEAVIENKTRYIRIDGSVSSSERIHLVNQFQKDPDTRVAILSIQAAGQGLTFTAASHVVFAELYWDPGHIKQAEDRAHRIGQCSSVNIHYLIANGTLDTLMWGMLNRKAQVTGSTLNGRKEKIQAEEGDKEKWDFLQFAEAWTPNDSSEELRKEALFTHFEKEKQHDIRSFFVPQPKKRQLMTSCDESKRFREENTVVSSDPTKTAARDIIDYESDVEPETKRLKLAASEDHCSPSEETPSQSKQIRTPLVESVQEAKAQLTTPAFPVEGWQCSLCTYINNSELPYCEMCETPQGSAVMQIDSLNHIQDKNEKDDSQKDTSKKVQTISDCEKQALAQSEPGQLADSKEETPKIEKEDGLTSQPGNEQWKSSDTLPVYDTLMFCASRNTDRIHIYTKDGKQMSCNFIPLDIKLDLWEDLPASFQLKQYRSLILRFVREWSSLTAMKQRIIRKSGQLFCSPILALEEITKQQTKQNCTKRYITKEDVAVASMDKVKNVGGHVRLITKESRPRDPFTKKLLEDGACVPFLNPYTVQADLTVKPSTSKGYLQAVDNEGNPLCLRCQQPTCQTKQACKANSWDSRFCSLKCQEEFWIRSNNSYLRAKVFETEHGVCQLCNVNAQELFLRLRDAPKSQRKNLLYATWTSALPLEQLNEMIRNPGEGHFWQVDHIKPVYGGGGQCSLDNLQTLCTVCHKERTARQAKERSQVRRQSLASKHGSDITRFLVKK
As for B5, the ATP hydrolysis rate stood at 15.12 ± 0.48 µmol/L/min and the k stood at 100.85 ± 3.22 min⁻¹.

For the origin of these results see paper PMC5481773, “Structural insights into the function of ZRANB3 in replication stress response” (Nature Communications, 2017).
